In the supplement of paper PMC9170038:

System: MS2 coat protein
Experiment: apparent KD of MS2 coat protein; designed switch direction (-1 OFF switch, 1 ON switch): 1; higher = weaker reporter binding
In short: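 Designed RNA switches sharing common flanks were transcribed on Illumina chips by stalled E. coli RNA polymerase. They were titrated with SNAP-549-labelled MS2 coat protein, from 0.7 or 1.5 nM doubling to 3 µM, in Tris-HCl pH 7.5 buffer with KCl, MgCl2, BSA, DTT, tRNA and Tween-20. Titrations ran without input, with 200 uM small-molecule ligand, or with an oligonucleotide input. The apparent KD of each design is the median over its clusters, after curve-fitting of normalised cluster fluorescence.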

[1] = Eterna round: R95, input ligand: FMN 200 uM
[2] = Eterna round: R95, input ligand: microRNA oligo, concentration not stated
[3] = Eterna round: R95, input ligand: none
[4] = input ligand: microRNA oligo, concentration not stated

Row | Sequence | apparent KD of MS2 coat protein [1] [nM] | apparent KD of MS2 coat protein [2] [nM] | apparent KD of MS2 coat protein [3] [nM] | apparent KD of MS2 coat protein (input ligand: FMN 200 uM) [nM] | apparent KD of MS2 coat protein [4] [nM] | apparent KD of MS2 coat protein (input ligand: none) [nM]
1 | AUUUAACAAGCUUUUUGCUCGUCUUAUAAACAUGAGGAUCACCCAUGUAAUAGCGUGAGAGUAAAUAAAUUAAUAAU [JMF 97] (puzzle: Sensor for hsa-mir-208a) | 14.4 | 46.1 | 12.2 |  |  | 
2 | AGUCCACGCUGACGUGGACAAAAGCAUGUACAUGAGGAUCACCCAUGUCAUGUACAAGCUUUUUGCUCGUCUUAAAA [Mat - hsa-mir-208a - Mod of JL - D17] (puzzle: Sensor for hsa-mir-208a) | 543 | 14.7 | 1680 |  |  | 
3 | ACAUGAGACCUAGGAUAUGUUGUACCUACAUGUGACAUGAGGAUCACCCAUGUGGUAAGUAUGAGACAGAAGGAGGAGAUAUGU [Equivalence 28 - Jieux - Same State NG 2] (Eterna round: R96, puzzle: Same State NG 2) |  |  |  | 12.8 | 21.2 | 32
4 | UUGAAGAAUUAAGGAUAUCGAGUCGUCAAAUUAAACAUGAGGAUCACCCAUGUGGGUUGUGGUAUCGAGAAGGUAAAUUACUAA [JR_SSNG2_Sub100] (Eterna round: R96, puzzle: Same State NG 2) |  |  |  | 57.1 | 66.4 | 84.7
5 | UUAUCUCAGACAUGAGGAUCACCCAUGUUUUUUUGUCUUAGACAGGAUAUAGUAGUAUCGAAAUACUAGAAGGGUCAUUUUAUU [JR_SSNG3_Sub023] (Eterna round: R96, puzzle: Same State NG 3) |  |  |  | 18.4 | 23.5 | 28.9
6 | UACAAUCUAUCUGAGGAUAUCAUGAUUAUAACAUGAGGAUCACCCAUGUGCAGGAAAACUGCAUAUGAGAAGGCAGAUAGAUUGU [salish99_ss2_r3_069] (Eterna round: R96, puzzle: Same State 2) |  |  |  | 228 | 116 | 232
7 | AGCUAGUACCGAGGAUAUACGUACAUGAGGAUCACCCAUGUAUACAUGAAUUAAUGAGACUACAUGUAGAAGGCGGUACUAGCA [Mat - Same State NG 2 - JL mod - D49] (Eterna round: R96, puzzle: Same State NG 2) |  |  |  |  | 34.3 | 
8 | AUAUGAGAAGCAGGAUAUGUGGAGAAGAAACAAACAGAAGGGCUUAUGGGACAACAUGAGGAUCACCCAUGUUCUCUGUGAUGA [ssng1 a] (Eterna round: R96, puzzle: Same State NG 1) |  |  |  | 47.9 | 137 | 240
9 | GGGAAACCUCAAGGAUAUGCUACCGUUUCGGUAGCAGAAGGUGAUCACAUGAGGAUCACCCAUGUAUGCAUGCGUGAGCGUGCU [JL SSNG1 3.57] (Eterna round: R96, puzzle: Same State NG 1) |  |  |  | 42.6 | 71.3 | 47
10 | AACAAUCUAUCUGAGGAUAUUAUGAAAUAAACAUGAGGAUCACCCAUGUGCAGGAAAACUGCAUAUGAGAAGGCAGAUAGAUUGA [salish99_ss2_r3_027] (Eterna round: R96, puzzle: Same State 2) |  |  |  |  | 274 | 
11 | UGAAUAGUUACAGGAUAUGAGCCGUAAAUUGGGUCAGAAGGGUGGGUGUUUUGCGCUGUGUGUUACAUGAGGAUCACCCAUGUU [SameState NG1 #32] (Eterna round: R96, puzzle: Same State NG 1) |  |  |  | 206 | 86.7 | 137
12 | GCUAGAAUUAAAGCCAACAUGAGGAUCACCCAUGUAUGUUGGUAGGAUAUCGUUUGCUUUGCAAACGAGAAGGGCUAAUCUAGC [JL SSNG3 1.22] (Eterna round: R96, puzzle: Same State NG 3) |  |  |  | 62.4 | 59.8 | 69.2
13 | GGUAGGUUACUACCAAUCUACAUGAGGAUCACCCAUGUGUAGGAGGAUAUGGUACCUAUUUGGUACCAGAAGGCCUUAUUAAUU [Fiskers NG3ss - 10] (Eterna round: R96, puzzle: Same State NG 3) |  |  |  | 143 | 81.8 | 98.8
14 | GCUUGACAUGAGGAUCACCCAUGUCAUGCGGACACAGGAUAUCGUGGCCUGAAGCCGUCAUGAGAAGGGUGACCAA [Bibiedce] (puzzle: Same State 1) | 28.3 | 17.3 | 17.6 |  |  | 
15 | AGAAGACAUGAGGAUCACCCAUGUACAUAAUGAGGAGAAUGGGAGGAUAUGCAGAGAGAGAGGGAGCAGAAGGUCCAGUAUGAA [Default title] (Eterna round: R96, puzzle: Same State NG 3) |  |  |  | 44.4 | 51.6 | 105
16 | CCUUCGGGAGUAGGAUAUGUAGGAUAUGCCUACAUGAGGAUCACCCAUGUUCGCAUGGCAGAAGGACAGAAGGACACGUUCGCG [pwkr ssNG2 2FMN + 1F5.13] (Eterna round: R96, puzzle: Same State NG 2) |  |  |  | 95.4 | 287 | 652
